Experimental data reported in patent US20210290759A1 (BRAVOVAX, published 2021).

Columns and labels:
[1] = biological target: TLR-5 receptor on THP-1 cells (UniProt O60602); assay: cell-based or functional assay
[2] = biological target: TLR-5 receptor on THP-1 cells (UniProt O60602 21-858); assay: cell-based or functional assay
Chain of TLR-5 receptor on THP-1 cells (UniProt O60602 21-858) (O60602 21-858 limits assumed): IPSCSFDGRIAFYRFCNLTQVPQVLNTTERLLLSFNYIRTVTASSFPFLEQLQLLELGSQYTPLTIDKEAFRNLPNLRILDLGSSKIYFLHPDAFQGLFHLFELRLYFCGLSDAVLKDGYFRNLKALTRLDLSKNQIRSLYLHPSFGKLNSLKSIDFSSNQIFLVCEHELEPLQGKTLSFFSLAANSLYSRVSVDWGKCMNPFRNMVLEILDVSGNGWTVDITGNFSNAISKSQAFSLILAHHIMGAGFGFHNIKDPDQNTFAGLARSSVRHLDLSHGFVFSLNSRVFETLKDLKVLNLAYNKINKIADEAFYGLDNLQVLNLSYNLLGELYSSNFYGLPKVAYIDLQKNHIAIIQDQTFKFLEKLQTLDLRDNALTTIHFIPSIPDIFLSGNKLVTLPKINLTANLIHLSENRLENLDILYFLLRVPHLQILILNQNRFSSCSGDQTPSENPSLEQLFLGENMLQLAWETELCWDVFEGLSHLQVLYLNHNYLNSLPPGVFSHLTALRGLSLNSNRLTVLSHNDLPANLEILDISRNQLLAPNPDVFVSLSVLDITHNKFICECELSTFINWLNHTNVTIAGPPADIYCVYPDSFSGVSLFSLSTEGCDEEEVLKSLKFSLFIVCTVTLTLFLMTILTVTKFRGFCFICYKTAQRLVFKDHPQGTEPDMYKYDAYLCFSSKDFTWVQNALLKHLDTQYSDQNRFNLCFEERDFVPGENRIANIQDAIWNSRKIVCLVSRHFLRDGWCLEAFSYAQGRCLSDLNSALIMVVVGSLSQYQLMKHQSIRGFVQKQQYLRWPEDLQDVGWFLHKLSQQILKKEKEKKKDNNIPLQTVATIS

Chain of TLR-5 receptor on THP-1 cells (UniProt O60602) (O60602 21-858 limits assumed): as above

## endotoxin-free flagellin protein (Alpha Diagnostic) (ligand)
[1]
  IL-8 content in THP-1 supernatant, stimulation at 2.5 ug/mL: 19.6 ng
  In vitro relative potency (%), IL-8: 100%
  In vitro relative potency (%), TNF-α: 100%
  TNF-α content in THP-1 supernatant, stimulation at 2.5 ug/mL: 969 pg

B1: ASF fusion protein (N-terminal D0-D1-gE-C-terminal D1-D0, LT2) (other)
chain: AQVINTNSLSLLTQNNLNKSQSALGTAIERLSSGLRINSAKDDAAGQAIANRFTANIKGLTQASRNANDGISIAQTTEGALNEINNNLQRVRELAVQSANSTNSQSDLDSIQAEITQRLNEIDRVSGQTQFNGVKVLAQDNTLTIQVGANDGETIDIDLKQINSQTLGLDTLNVQGGGGSGGGGSGGGGSSVLRYDDFHIDEDKLDTNSVYEPYYHSDHAESSWVNRGESSRKAYDHNSPYIWPRNDYDGFLENAHEHHGVYNQGRGIDSGERLMQPTQMSAQEDLGDDTGIHVIPTLNGDDRHKIVNVDQRQYGDVFKGDLNPKPQGQRLIEVSVEENHPFTLRAPIQRIYGVRYTETWSFLPSLTCTGDAAPAIQHICLKHTTCFQDVVVDVDCAENTKEDQLAEISYRFQGKKEADQPWIVVNTSTLFDELELDPPEIEPGVLKVLRTEKQYLGVYIWNMRGSDGTSTYATFLVTWKGDEKTRNPTPAVTPQPRGAEFHMWNYHSHVFSVGDTFSLAMHLQYKIHEAPFDLLLEWLYVPIDPTCQPMRLYSTCLYHPNAPQCLSHMNSGCTFTSPHLAQRVASTVYQNCEHADNYTAYCLGISHMEPSFGLILHDGGTTLKFVDTPESLSGLYVFVVYFNGHVEAVAYTVVSTVDHFVNAIEERGFPPTAGQPPATTKPKEITPVNPGTSPLIRGGGGSGGGGSGGGGSKAQPDLAEAAATTTENPLQKIDAALAQVDTLRSDLGAVQNRFNSAITNLGNTVNNLTSARSRIEDSDYATEVSNMSRAQILQQAGTSVLAQANQVPQNVLSLLR
[2]
  IL-8 content in THP-1 supernatant, stimulation at 5 ug/mL: 27.8 ng
  In vitro relative potency (%), IL-8: 142%
  In vitro relative potency (%), TNF-α: 104%
  TNF-α content in THP-1 supernatant, stimulation at 5 ug/mL: 1000 pg

B2: recombinant VZV gE protein (gE extracellular region), expressed in eukaryotic cells from recombinant adenovirus (other)
chain: SVLRYDDFHIDEDKLDTNSVYEPYYHSDHAESSWVNRGESSRKAYDHNSPYIWPRNDYDGFLENAHEHHGVYNQGRGIDSGERLMQPTQMSAQEDLGDDTGIHVIPTLNGDDRHKIVNVDQRQYGDVFKGDLNPKPQGQRLIEVSVEENHPFTLRAPIQRIYGVRYTETWSFLPSLTCTGDAAPAIQHICLKHTTCFQDVVVDVDCAENTKEDQLAEISYRFQGKKEADQPWIVVNTSTLFDELELDPPEIEPGVLKVLRTEKQYLGVYIWNMRGSDGTSTYATFLVTWKGDEKTRNPTPAVTPQPRGAEFHMWNYHSHVFSVGDTFSLAMHLQYKIHEAPFDLLLEWLYVPIDPTCQPMRLYSTCLYHPNAPQCLSHMNSGCTFTSPHLAQRVASTVYQNCEHADNYTAYCLGISHMEPSFGLILHDGGTTLKFVDTPESLSGLYVFVVYFNGHVEAVAYTVVSTVDHFVNAIEERGFPPTAGQPPATTKPKEITPVNPGTSPLIR
[2]
  IL-8 content in THP-1 supernatant, stimulation at 5 ug/mL: 0 ng
  In vitro relative potency (%), IL-8: 0%
  In vitro relative potency (%), TNF-α: 0%
  TNF-α content in THP-1 supernatant, stimulation at 5 ug/mL: 0 pg

B3: ANF fusion protein (N-terminal D0-D1-C terminal D1-D0-gE, LT2) (other)
chain: AQVINTNSLSLLTQNNLNKSQSALGTAIERLSSGLRINSAKDDAAGQAIANRFTANIKGLTQASRNANDGISIAQTTEGALNEINNNLQRVRELAVQSANSTNSQSDLDSIQAEITQRLNEIDRVSGQTQFNGVKVLAQDNTLTIQVGANDGETIDIDLKQINSQTLGLDTLNVQSPGISGGGGGILDSMGKAQPDLAEAAATTTENPLQKIDAALAQVDTLRSDLGAVQNRFNSAITNLGNTVNNLTSARSRIEDSDYATEVSNMSRAQILQQAGTSVLAQANQVPQNVLSLLRGGGGSGGGGSGGGGSSVLRYDDFHIDEDKLDTNSVYEPYYHSDHAESSWVNRGESSRKAYDHNSPYIWPRNDYDGFLENAHEHHGVYNQGRGIDSGERLMQPTQMSAQEDLGDDTGIHVIPTLNGDDRHKIVNVDQRQYGDVFKGDLNPKPQGQRLIEVSVEENHPFTLRAPIQRIYGVRYTETWSFLPSLTCTGDAAPAIQHICLKHTTCFQDVVVDVDCAENTKEDQLAEISYRFQGKKEADQPWIVVNTSTLFDELELDPPEIEPGVLKVLRTEKQYLGVYIWNMRGSDGTSTYATFLVTWKGDEKTRNPTPAVTPQPRGAEFHMWNYHSHVFSVGDTFSLAMHLQYKIHEAPFDLLLEWLYVPIDPTCQPMRLYSTCLYHPNAPQCLSHMNSGCTFTSPHLAQRVASTVYQNCEHADNYTAYCLGISHMEPSFGLILHDGGTTLKFVDTPESLSGLYVFVVYFNGHVEAVAYTVVSTVDHFVNAIEERGFPPTAGQPPATTKPKEITPVNPGTSPLIR
[2]
  IL-8 content in THP-1 supernatant, stimulation at 5 ug/mL: 10.8 ng
  In vitro relative potency (%), IL-8: 55.3%
  In vitro relative potency (%), TNF-α: 57%
  TNF-α content in THP-1 supernatant, stimulation at 5 ug/mL: 552 pg

B4: ACF fusion protein (gE-N-terminal D0-D1-C-terminal D1-D0, LT2) (other)
chain: SVLRYDDFHIDEDKLDTNSVYEPYYHSDHAESSWVNRGESSRKAYDHNSPYIWPRNDYDGFLENAHEHHGVYNQGRGIDSGERLMQPTQMSAQEDLGDDTGIHVIPTLNGDDRHKIVNVDQRQYGDVFKGDLNPKPQGQRLIEVSVEENHPFTLRAPIQRIYGVRYTETWSFLPSLTCTGDAAPAIQHICLKHTTCFQDVVVDVDCAENTKEDQLAEISYRFQGKKEADQPWIVVNTSTLFDELELDPPEIEPGVLKVLRTEKQYLGVYIWNMRGSDGTSTYATFLVTWKGDEKTRNPTPAVTPQPRGAEFHMWNYHSHVFSVGDTFSLAMHLQYKIHEAPFDLLLEWLYVPIDPTCQPMRLYSTCLYHPNAPQCLSHMNSGCTFTSPHLAQRVASTVYQNCEHADNYTAYCLGISHMEPSFGLILHDGGTTLKFVDTPESLSGLYVFVVYFNGHVEAVAYTVVSTVDHFVNAIEERGFPPTAGQPPATTKPKEITPVNPGTSPLIRGGGGSGGGGSGGGGSAQVINTNSLSLLTQNNLNKSQSALGTAIERLSSGLRINSAKDDAAGQAIANRFTANIKGLTQASRNANDGISIAQTTEGALNEINNNLQRVRELAVQSANSTNSQSDLDSIQAEITQRLNEIDRVSGQTQFNGVKVLAQDNTLTIQVGANDGETIDIDLKQINSQTLGLDTLNVQSPGISGGGGGILDSMGKAQPDLAEAAATTTENPLQKIDAALAQVDTLRSDLGAVQNRFNSAITNLGNTVNNLTSARSRIEDSDYATEVSNMSRAQILQQAGTSVLAQANQVPQNVLSLLR
[2]
  IL-8 content in THP-1 supernatant, stimulation at 5 ug/mL: 6.41 ng
  In vitro relative potency (%), IL-8: 32.7%
  In vitro relative potency (%), TNF-α: 11.6%
  TNF-α content in THP-1 supernatant, stimulation at 5 ug/mL: 112 pg
